Results taken from patent US11360100B2, “Methods and compositions useful in detecting proteins” (OREGON HEALTH & SCIENCE UNIVERSITY, priority 2016, dated 2022).

Test: Membrane permeance of probe peptides in living cells
Format: cell-based
Method: The disclosed tag sets preferentially label cell surfaces and are membrane impermeant in living cells, which is of particular use in labeling cell-surface receptors (i.e., TfR1 and EGFR) and more particularly of use in monitoring trafficking and endocytosis.
The disclosed methods were tested in transfected human osteosarcoma cells (U-2 OS). A pDisplay vector was used to target CoilZ-EGFP and untagged EGFP to the cell surface. This construct includes a C-terminal fusion to the transmembrane domain of the platelet derived growth factor receptor. As expected, both CoilZ-EGFP and untagged EGFP localized to the cell surface, and green fluorescence was observed within 24 h of transfection. Then the cells were blocked with 6% BSA and 10% FBS for 30 minutes at 37° C. and then contacted with an AF647-conjugated CoilY probe (CoilY-AF647), 30 min at 4° C. Cells were fixed before imaging by confocal fluorescence microscopy. The probe peptides are membrane impermeant; only cell-surface EGFP was accessible to CoilY-AF647 for labeling. Colocalization of green fluorescent CoilZ-EGFP with CoilY-AF647 was observed.
VIP probe peptides are live cell impermeant. This makes them ideal for imaging and tracking receptor internalization. […]
VIPER labeling was compared to that of standard fluorescence labeling techniques, namely a fluorescent protein fusion to mCherry and antibody labeling.

## CoilR: coiled-coil peptide, SEQ ID NO: 1, designed from RR12EE345L (LEIRAAFLRQRNTALRTEVAELEQEVQRLENEVSQYETRYGPL)
  cell membrane permeance: cell-membrane impermeance
